Percent of encapsulins with apparent cargo and percent of particles with cargo data for 2 substances are collected here from publication PMC9309400.

For experiment [1], the target named is Family 2B encapsulin from S. griseus, expressed in E. coli (S. griseus). Nature of the experiment: cryo-EM 2D class averages.
The target of experiment [2] is Family 2B encapsulin from S. griseus (Q54255), expressed in S. coelicolor (S. griseus). Nature of the experiment: cryo-EM 2D class averages.

On to “cargo protein of the Family 2B encapsulin from S. griseus, expressed in E. coli (natural protein)”, for which, in experiment [1], the percent of encapsulins with apparent cargo was found to be 34%.
Regarding “cargo protein of the encapsulin (A0A2X2LWM5), expressed in S. coelicolor (natural protein)”, in experiment [2], the percent of particles with cargo was 96%.
